Reference: doi:10.1101/2022.02.05.479199

Columns and labels:
hRPA = hRPA (human, UniProt P27694;P15927;P35244 1-616;1-270;1-121); assay: EMSA
hRPA;RPAIN = hRPA;RPAIN (human;human, UniProt P27694;P15927;P35244;Q86UA6 1-616;1-270;1-121;1-219, |); assay: EMSA
hRPA;RPAIN, sequence (P27694 whole entry, chain 1 of 4): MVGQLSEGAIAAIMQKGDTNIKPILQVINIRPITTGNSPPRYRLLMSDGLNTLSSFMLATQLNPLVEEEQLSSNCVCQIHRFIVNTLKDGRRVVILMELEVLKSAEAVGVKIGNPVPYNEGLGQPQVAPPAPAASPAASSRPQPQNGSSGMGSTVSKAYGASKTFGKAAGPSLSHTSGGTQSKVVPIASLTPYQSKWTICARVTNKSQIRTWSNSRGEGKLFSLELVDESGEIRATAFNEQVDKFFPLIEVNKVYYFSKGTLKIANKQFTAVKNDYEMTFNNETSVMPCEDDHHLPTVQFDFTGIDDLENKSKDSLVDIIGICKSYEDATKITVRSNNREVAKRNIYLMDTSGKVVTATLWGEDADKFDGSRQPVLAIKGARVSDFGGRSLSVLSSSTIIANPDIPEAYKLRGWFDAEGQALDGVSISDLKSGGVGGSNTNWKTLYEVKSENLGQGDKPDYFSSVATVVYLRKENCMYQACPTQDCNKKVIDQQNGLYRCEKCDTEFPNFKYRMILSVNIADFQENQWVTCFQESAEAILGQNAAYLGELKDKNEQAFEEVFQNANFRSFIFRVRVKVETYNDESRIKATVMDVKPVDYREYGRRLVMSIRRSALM
hRPA;RPAIN, sequence (P15927 whole entry, chain 2 of 4): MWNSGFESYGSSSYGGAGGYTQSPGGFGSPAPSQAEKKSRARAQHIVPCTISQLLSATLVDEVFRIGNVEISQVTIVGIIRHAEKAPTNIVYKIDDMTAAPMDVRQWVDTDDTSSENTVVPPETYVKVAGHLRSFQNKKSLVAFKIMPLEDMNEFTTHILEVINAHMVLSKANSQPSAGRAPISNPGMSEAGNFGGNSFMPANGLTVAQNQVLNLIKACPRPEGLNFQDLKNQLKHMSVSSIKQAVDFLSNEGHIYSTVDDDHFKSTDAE
hRPA;RPAIN, sequence (P35244 whole entry, chain 3 of 4): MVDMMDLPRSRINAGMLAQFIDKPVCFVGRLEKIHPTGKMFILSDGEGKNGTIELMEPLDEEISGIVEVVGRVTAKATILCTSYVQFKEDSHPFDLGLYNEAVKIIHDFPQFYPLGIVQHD
hRPA;RPAIN, sequence (Q86UA6 whole entry, chain 4 of 4): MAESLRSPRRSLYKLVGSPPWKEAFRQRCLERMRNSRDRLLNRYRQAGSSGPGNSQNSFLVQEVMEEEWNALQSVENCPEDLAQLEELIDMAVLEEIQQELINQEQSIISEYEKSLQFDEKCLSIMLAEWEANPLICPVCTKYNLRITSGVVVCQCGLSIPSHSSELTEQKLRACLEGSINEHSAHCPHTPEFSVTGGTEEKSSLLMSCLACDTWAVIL

hRPA, sequence (P27694 whole entry, chain 1 of 3): as the sequence (P27694 whole entry, chain 1 of 4) above
hRPA, sequence (P15927 whole entry, chain 2 of 3): as the sequence (P15927 whole entry, chain 2 of 4) above
hRPA, sequence (P35244 whole entry, chain 3 of 3): as the sequence (P35244 whole entry, chain 3 of 4) above

Binder: TTTTTTTTTTTTTTTTTTTTTTTTTTTTTT (ssDNA) [5'-Cy5-(dT)30]
- Kd (hRPA): 10.5 nM
- Kd (hRPA;RPAIN): 11.8 nM
